Measurements as given in patent publication US20120316071A1 (published 2012).
Each block holds one binder with its values, some of them ahead of it.

Legend:
[1] = molecular target: T1, rHuman HGF R/c-MET/Fc Chimera, CF (R&D Systems Cat#358-MT/CF) (human, UniProt P08581 25-932); experiment: ECL Multispot (MSD) assay, antigen spotted on plate, 10 nM Fab; blank spot of this row 487
T1 construct: Bought reagent; also called HGF R/Fc; hepatocyte growth factor receptor; Fc part of the bought chimera not given

[2] = molecular target: T2, rHuman P-Cadherin/Fc Chimera, CF (R&D Systems Cat#861-PC) (human, UniProt P22223 108-654); experiment: as above
T2 construct: Bought reagent; Fc part of the bought chimera not given

[3] = molecular target: T3, rHuman IGF-1 sR, CF (R&D Systems Cat#391-GR) (human, UniProt P08069 31-932); experiment: as above
T3 construct: Bought soluble receptor; The column head prints only 'IGF-1'; also called insulin-like growth factor-1 soluble receptor

[4] = molecular target: T4, rHuman ErbB2/Fc Chimera, CF (R&D Systems Cat#1129-ER) (human, UniProt P04626 23-652); experiment: as above
T4 construct: Bought reagent; also called human epidermal growth factor 2 receptor; Fc part of the bought chimera not given

[5] = molecular target: T5, rHuman EGF R/Fc Chimera, CF (R&D Systems Cat#344-ER) (human, UniProt P00533 25-645); experiment: as above
T5 construct: Bought reagent; also called epidermal growth factor receptor; Fc part of the bought chimera not given

[6] = molecular target: T6, rHuman CD44/Fc Chimera, CF (R&D Systems Cat#3660-CD) (human, UniProt P16070 21-220); experiment: as above
T6 construct: Bought reagent; Fc part of the bought chimera not given

[7] = molecular target: T7, rHuman Notch-1/Fc Chimera, CF (R&D Systems Cat#3647-TK) (human, UniProt P46531 19-526); experiment: as above
T7 construct: Bought reagent; Fc part of the bought chimera not given

[8] = molecular target: T8, rHuman Erythropoietin R/Fc Chimera, CF (R&D Systems Cat#963-ER) (human, UniProt P19235 25-250); experiment: as above
T8 construct: Bought reagent; also called EPO R; EPO R/Fc; Fc part of the bought chimera not given
T8 sequence (looked up): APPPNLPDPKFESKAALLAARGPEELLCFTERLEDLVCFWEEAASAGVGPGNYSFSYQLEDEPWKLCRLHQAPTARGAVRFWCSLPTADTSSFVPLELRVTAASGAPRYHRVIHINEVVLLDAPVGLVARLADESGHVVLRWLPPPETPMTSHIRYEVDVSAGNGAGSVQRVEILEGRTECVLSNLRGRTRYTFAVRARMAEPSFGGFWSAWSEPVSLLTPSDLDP

[9] = molecular target: T9, rHuman Notch-1/Fc Chimera, CF (R&D Systems Cat#3647-TK) (human, UniProt P46531 19-526); experiment: MSD multispot ECL, antigen spotted on plate; Fab 0.51 uM; blank spot 1096
T9 construct: Bought recombinant protein; Fc part of the bought chimera not given

[10] = molecular target: T10, rHuman CD44/Fc Chimera, CF (R&D Systems Cat#3660-CD) (human, UniProt P16070 21-220); experiment: as above
T10 construct: Bought recombinant protein; Fc part of the bought chimera not given

[11] = molecular target: T11, rHuman Erythropoietin R/Fc Chimera, CF (R&D Systems Cat#963-ER) (human, UniProt P19235 25-250); experiment: as above
T11 construct: Bought recombinant protein; also called EPO R/Fc; Epo R; Fc part of the bought chimera not given
T11 sequence (looked up): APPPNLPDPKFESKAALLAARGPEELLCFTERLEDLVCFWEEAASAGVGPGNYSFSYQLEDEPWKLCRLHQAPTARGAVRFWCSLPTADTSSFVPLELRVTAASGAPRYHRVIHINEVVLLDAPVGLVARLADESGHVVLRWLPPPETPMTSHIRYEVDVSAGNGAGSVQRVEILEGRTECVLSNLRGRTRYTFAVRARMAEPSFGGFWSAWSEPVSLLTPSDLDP

[12] = molecular target: T12, rHuman ErbB2/Fc Chimera, CF (R&D Systems Cat#1129-ER) (human, UniProt P04626 23-652); experiment: as above
T12 construct: Bought recombinant protein; also called human epidermal growth factor 2 receptor; Fc part of the bought chimera not given

[13] = molecular target: T13, Recombinant Human DLL4 (R&D Systems Cat#1506-D4/CF) (human, UniProt Q9NR61 27-524); experiment: as above
T13 construct: Bought recombinant protein; also called delta-like protein 4; rHuman DLL4

[14] = molecular target: T14, Recombinant Human DLL4 (R&D Systems Cat#1506-D4/CF) (human, UniProt Q9NR61 27-524); experiment: MSD Multispot ECL, antigen spotted on plate, Fab at 30 nM; blank spot 213
T14 construct: Bought recombinant protein; also called rHuman DLL4; delta-like protein 4

[15] = molecular target: T15, rHuman Notch-1/Fc Chimera, CF (R&D Systems Cat#3647-TK) (human, UniProt P46531 19-526); experiment: as above
T15 construct: Bought Fc chimera; Fc part of the bought chimera not given

[16] = molecular target: T16, rHuman CD44/Fc Chimera, CF (R&D Systems Cat#3660-CD) (human, UniProt P16070 21-220); experiment: as above
T16 construct: Bought Fc chimera; Fc part of the bought chimera not given

[17] = molecular target: T17, rHuman P-Cadherin/Fc Chimera, CF (R&D Systems Cat#861-PC) (human, UniProt P22223 108-654); experiment: as above
T17 construct: Bought Fc chimera; Fc part of the bought chimera not given

[18] = molecular target: T18, rHuman Erythropoietin R/Fc Chimera, CF (R&D Systems Cat#963-ER) (human, UniProt P19235 25-250); experiment: as above
T18 construct: Bought Fc chimera; also called EPO R/Fc; Epo R; Fc part of the bought chimera not given
T18 sequence (looked up): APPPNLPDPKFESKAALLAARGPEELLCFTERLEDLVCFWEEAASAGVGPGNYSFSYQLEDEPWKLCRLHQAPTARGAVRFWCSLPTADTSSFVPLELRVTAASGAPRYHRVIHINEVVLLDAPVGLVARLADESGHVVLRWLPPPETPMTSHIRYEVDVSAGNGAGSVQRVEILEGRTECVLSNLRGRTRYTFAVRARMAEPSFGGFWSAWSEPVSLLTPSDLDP

T1 sequence (P08581 25-932, change not shown): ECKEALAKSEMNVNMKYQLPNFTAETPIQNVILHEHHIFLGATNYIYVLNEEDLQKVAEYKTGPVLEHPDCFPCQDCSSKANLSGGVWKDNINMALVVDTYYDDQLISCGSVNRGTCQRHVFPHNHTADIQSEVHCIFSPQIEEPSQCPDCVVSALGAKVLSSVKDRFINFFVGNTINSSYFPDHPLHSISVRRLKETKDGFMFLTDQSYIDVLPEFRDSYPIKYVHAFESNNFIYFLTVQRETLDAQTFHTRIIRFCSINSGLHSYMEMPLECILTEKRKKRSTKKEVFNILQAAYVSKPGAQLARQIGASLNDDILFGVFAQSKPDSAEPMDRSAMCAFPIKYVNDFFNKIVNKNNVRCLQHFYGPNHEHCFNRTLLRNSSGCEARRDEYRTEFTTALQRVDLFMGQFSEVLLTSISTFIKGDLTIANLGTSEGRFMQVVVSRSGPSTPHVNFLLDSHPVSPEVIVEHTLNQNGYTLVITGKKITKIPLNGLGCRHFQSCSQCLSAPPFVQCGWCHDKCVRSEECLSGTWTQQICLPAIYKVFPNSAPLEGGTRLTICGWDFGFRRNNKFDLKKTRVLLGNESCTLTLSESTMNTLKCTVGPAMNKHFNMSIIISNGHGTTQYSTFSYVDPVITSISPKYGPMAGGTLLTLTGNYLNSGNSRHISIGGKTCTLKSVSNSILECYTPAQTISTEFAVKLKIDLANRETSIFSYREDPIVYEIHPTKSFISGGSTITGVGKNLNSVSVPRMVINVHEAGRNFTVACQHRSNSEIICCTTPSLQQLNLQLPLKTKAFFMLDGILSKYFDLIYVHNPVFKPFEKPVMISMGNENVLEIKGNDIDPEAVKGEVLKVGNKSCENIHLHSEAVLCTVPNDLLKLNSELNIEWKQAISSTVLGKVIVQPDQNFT

- ECL signal [1]: 379
- ECL signal [2]: 384
- ECL signal [3]: 453
- ECL signal [4]: 381
- ECL signal [5]: 206
- ECL signal [6]: 363
- ECL signal [7]: 450
- ECL signal [8]: 326
B1: Fab VH1-46_IGHD6-6*01_IGHJ1*01 S102A/S103P/S104F (APF) & L6_IGKJ1*01 (Fab, V domains shown)
VH: QVQLVQSGAEVKKPGASVKVSCKASGYTFTSYYMHWVRQAPGQGLEWMGIINPSGGSTSYAQKFQGRVTMTRDTSTSTVYMELSSLRSEDTAVYYCAREEYAPFSAEYFQHWGQGTLVTVSS
VL: not shown
notes: Tested as a Fab made in E. coli; also called H:APF & L:wt; APF triple mutant

- ECL signal [9]: 2770
- ECL signal [10]: 2010
- ECL signal [11]: 2620
- ECL signal [12]: 1530
- ECL signal [13]: 5180
B2: Fab VH4-34_IGHD7-27*01_IGHJ4*01 & L5_IGKJ1*01 (Fab, V domains shown)
VH: QVQLQQWGAGLLKPSETLSLTCAVYGGSFSGYYWSWIRQPPGKGLEWIGEINHSGSTNYNPSLKSRVTISVDTSKNQFSLKLSSVTAADTAVYYCARANWGDYFDYWGQGTLVTVSS
VL: DIQMTQSPSSVSASVGDRVTITCRASQGISSWLAWYQQKPGKAPKLLIYAASSLQSGVPSRFSGSGSGTDFTLTISSLQPEDFATYYCQQANSFPPWTFGQGTKVEIKR
notes: Germline library Fab expressed in E. coli; VH was cloned into Plasmid A, which adds CH1 with His6 and Flag tags

- ECL signal [14]: 736
- ECL signal [15]: 425
- ECL signal [16]: 484
- ECL signal [17]: 440
- ECL signal [18]: 325
B3: Fab VH6-1_IGHD3-3*01_IGHJ4*01 & V4-3_IGLJ4*01 (Fab, V domains shown)
VH: QVQLQQSGPGLVKPSQTLSLTCAISGDSVSSNSAAWNWIRQSPSRGLEWLGRTYYRSKWYNDYAVSVKSRITINPDTSKNQFSLQLNSVTPEDTAVYYCAREYYDFWSGYYTDYFDYWGQGTLVTVSS
VL: QPVLTQPTSLSASPGASARLTCTLRSGINLGSYRIFWYQQKPESPPRYLLSYYSDSSKHQGSGVPSRFSGSKDASSNAGILVISGLQSEDEADYYCMIWHSSASFVFGGGTQLIIL
notes: Tested as a purified germline Fab made in E. coli; The VH was cloned into plasmid A (CH1 constant region, His6 and Flag tags) and the lambda VL into plasmid E (lambda CL)
